According to patent EP2481750A1 (Mayo Foundation for Medical Education and Research, dated 2012):

Molecular target: T1, human B7-DC (human, UniProt Q9BQ51 20-273)
T1 construct: whole, on cells; also called hB7.DC; human B7-DC orthologue
T1 sequence (looked up): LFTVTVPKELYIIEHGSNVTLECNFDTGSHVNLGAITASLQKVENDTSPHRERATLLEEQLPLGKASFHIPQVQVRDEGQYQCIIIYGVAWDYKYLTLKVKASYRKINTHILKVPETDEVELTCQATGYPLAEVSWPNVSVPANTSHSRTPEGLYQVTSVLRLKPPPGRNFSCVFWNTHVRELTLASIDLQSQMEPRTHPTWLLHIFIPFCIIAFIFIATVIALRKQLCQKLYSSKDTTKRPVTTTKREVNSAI
Assay: flow cytometry on Ltk cells transiently transfected with human B7-DC

binding result: binds
B1: sHIgM12 (pentameric human monoclonal IgM/kappa antibody, B7-DC cross-linking antibody) (antibody)
heavy: QVQLQESGPGLLKPSETLSLTCTVSGGSVSLYYWSWIRQSPGKEPEWIGYIYSSGSTDYNPSLRSRVTISLDTSNNRFSLNLRSVTAADTAVYWCARSASIRGWFDPWGQGTLVTVSSGSASAPTLFPLVSCENSPSDTSSVAVGCLAQDFLPDSITFSWKYKNNSDISSTRGFPSVLRGGKYAATSQVLLPSKDVMQGTDEHVVCKVQHPNGNKEKNVPLPVIAELPPKVSVFVPPRDGFFGNPRKSKLICQATGFSPRQIQVSWLREGKQVGSGVTTDQVQAEAKESGPTTYKVTSTLTIKESDWLSQSMFTCRVDHRGLTFQQNASSMCVPDQDTAIRVFAIPPSFASIFLTKSTKLTCLVTDLTTYDSVTISWTRQNGEAVKTHTNISESHPNATFSAVGEASICEDDWNSGERFTCTVTHTDLPSPLKQTISRPKGVALHRPDVYLLPPAREQLNLRESATITCLVTGFSPADVFVQWMQRGQPLSPEKYVTSAPMPEPQAPGRYFAHSILTVSEEEWNTGETYTCVVAHEALPNRVTERTVDKSTGKPTLYNVSLVMSDTAGTCY
light: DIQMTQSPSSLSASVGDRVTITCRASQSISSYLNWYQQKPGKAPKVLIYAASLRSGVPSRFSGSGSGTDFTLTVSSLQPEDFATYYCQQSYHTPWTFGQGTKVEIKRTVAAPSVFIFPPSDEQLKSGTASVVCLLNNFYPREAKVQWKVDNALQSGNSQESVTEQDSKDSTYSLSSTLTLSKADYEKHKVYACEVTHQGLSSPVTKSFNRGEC
notes: also called intact sHIgM12; pentameric sHIgM12
